{
  "source": "patent US20160032259A1",
  "about": "(KOREA ADVANCED INSTITUTE OF SCIENCE AND TECHNOLOGY KAIST, published 2016)",
  "binders": {"B1": {"name": "VEGF-Grab1 (Fc fusion)", "chain": "EFGRPFVEMYSEIPEIIHMYEGRELVIPCRVTSPNITVTLKKFPLDTLIPDGKRIIWDSRKGFIISNATYKEIGLLTCEATVNGHLYKTNYLTHRQTNTIIDVQISTPSPVTLLRGHTLVLNCTRTTPLNTRVQMTWSYPDEKNKRASVRRRIDQSNSHANIFYSVLTIDKMQNKDKGLYTCRVRSGPSFKSVNTSVHIYDKALEDKTHTCPPCPAPELLGGPSVFLFPPKPKDTLMISRTPEVTCVVVDVSHEDPEVKFNWYVDGVEVHNAKTKPREEQYNSTYRVVSVLTVLHQDWLNGKEYKCKVSNKALPAPIEKTISKAKGQPREPQVYTLPPSREEMTKNQVSLTCLVKGFYPSDIAVEWESNGQPENNYKYYPPVLDSDGSFFLYSKKTVDKSRWQQGNVFSCSVMHEALHNHYTQKSLSLSPGK", "modifications": "O-linked glycan (HexNAc1Hex1NeuAc1) at Ser135; N-glycans at Asn61, Asn93 and Asn308; no evidence of O-glycosylation at Thr138", "notes": "Produced in CHO cells, protein A purified; also called G1; VEGF-Grabs"}, "B2": {"name": "VEGF-Grab3 (Fc fusion)", "chain": "B1 chain with R146N", "modifications": "O-linked glycan (HexNAc1Hex1NeuAc1) at Ser135; N-glycans at Asn61, Asn93 and Asn308; mutated Asn172 not glycosylated; no evidence of O-glycosylation at Thr138", "notes": "Produced in CHO cells, protein A purified; also called G3; VEGF-Grabs"}, "B3": {"name": "hVEGF-A165 (ligand, human, UniProt P15692-4 27-191, looked up)", "chain": "APMAEGGGQNHHEVVKFMDVYQRSYCHPIETLVDIFQEYPDEIEYIFKPSCVPLMRCGGCCNDEGLECVPTEESNITMQIMRIKPHQGQHIGEMSFLQHNKCECRPKKDRARQENPCGPCSERRKHLFVQDPQTCKCSCKNTDSRCKARQLELNERTCRCDKPRR", "notes": "The cell assays name only 'VEGF-A' without the isoform"}, "B4": {"name": "PlGF (ligand)", "chain": "LPAVPPQQWALSAGNGSSEVEVVPFQEVWGRSYCRALERLVDVVSEYPSEVEHMFSPSCVSLLRCTGCCGDENLHCVPVETANVTMQLLKIRSGDRPSYVELTFSQHVRCECRHSPGRQSPDMPGDFRADA"}, "B5": {"name": "VEGF-Trap (Fc fusion, UniProt P17948 129-230, looked up, not shown: a dimerising Fc or GST)", "chain": "SDTGRPFVEMYSEIPEIIHMTEGRELVIPCRVTSPNITVTLKKFPLDTLIPDGKRIIWDSRKGFIISNATYKEIGLLTCEATVNGHLYKTNYLTHRQTNTIIDVVLSPSHGIELSVGEKLVLNCTARTELNVGIDFNWEYPSSKHQHKKLVNRDLKTQSGSEMKKFLSTLTIDGVTRSDQGLYTCAASSGLMTKKNSTFVRVHEK", "modifications": "N-glycans at Asn61, Asn93 and Asn328"}},
  "key": {"hVEGF-A165 [1]": {"target": "B3", "test": "cell-based or functional assay"}, "PlGF [2]": {"target": "B4", "test": "solid phase binding ELISA; PlGF coated, Fc fusion titrated, anti-human Fc-HRP", "method": "(§1) The binding affinities of VEGF-Grabs to ligands were measured by ELISA as described previously. Briefly, the MaxiSorp plates (Nunc) were coated with either hVEGF-A₁₆₅(150 ng/ml), PlGF (62.5 ng/ml), or hVEGF-B (125 ng/ml) and serially increasing amounts (0.1 nM-10 μM) of VEGF-Grabs or VEGF-Trap were added. After washing, the plates were incubated with HRP-conjugated goat anti-human Fc antibody. Then, 3,3′,5,5′-tetramethylbenzidine (TMB) solution (Sigma-Aldrich) was added and absorbance was measured by ELISA reader (BioRad) at 450 nm."}, "hVEGF-A165 [3]": {"target": "B3", "test": "solid phase binding ELISA; hVEGF-A165 coated; reference VT", "method": "as §1"}, "PlGF [4]": {"target": "B4", "test": "solid phase binding ELISA; PlGF coated; reference VT", "method": "as §1"}, "hVEGF-A165 [5]": {"target": "B3", "test": "solid phase binding ELISA; hVEGF-A165 coated, Fc fusion titrated, anti-human Fc-HRP", "method": "as §1"}, "VEGF-Trap [6]": {"target": "B5", "test": "solid phase binding ELISA; hVEGF-A165 coated, Fc fusion titrated, anti-human Fc-HRP", "method": "as §1"}, "VEGF-Trap [7]": {"target": "B5", "test": "solid phase binding ELISA; PlGF coated, Fc fusion titrated, anti-human Fc-HRP", "method": "as §1"}},
  "note": "Changes are numbered by the printed parent chain.",
  "data": [
    {"binder": "B1", "values": [
      {"measurement": "IC50 of VEGF-A-induced proliferation of HUVECs", "setting": "hVEGF-A165 [1]", "value": 1.7, "unit": "nM"},
      {"measurement": "fold more efficient than VT in inhibiting VEGF-A-induced proliferation of HUVECs", "setting": "hVEGF-A165 [1]", "value": 2.8, "unit": "fold"},
      {"measurement": "Kd", "setting": "PlGF [2]", "value": 2.8, "unit": "nM"},
      {"measurement": "fold higher affinity than VT", "setting": "hVEGF-A165 [3]", "value": 1.1, "unit": "fold"},
      {"measurement": "fold more potent binding affinity than VT", "setting": "PlGF [4]", "value": 18.5, "unit": "fold"},
      {"measurement": "Kd", "setting": "hVEGF-A165 [5]", "value": 0.79, "unit": "nM"}
    ]},
    {"binder": "B2", "values": [
      {"measurement": "IC50 of VEGF-A-induced proliferation of HUVECs", "setting": "hVEGF-A165 [1]", "value": 2.4, "unit": "nM"},
      {"measurement": "fold more efficient than VT in inhibiting VEGF-A-induced proliferation of HUVECs", "setting": "hVEGF-A165 [1]", "value": 2, "unit": "fold"},
      {"measurement": "Kd", "setting": "PlGF [2]", "value": 6.9, "unit": "nM"},
      {"measurement": "fold higher affinity than VT", "setting": "hVEGF-A165 [3]", "value": 1.5, "unit": "fold"},
      {"measurement": "fold more potent binding affinity than VT", "setting": "PlGF [4]", "value": 6.7, "unit": "fold"},
      {"measurement": "Kd", "setting": "hVEGF-A165 [5]", "value": 0.56, "unit": "nM"}
    ]},
    {"binder": "B3", "values": [
      {"measurement": "Kd", "setting": "VEGF-Trap [6]", "value": 0.84, "unit": "nM"}
    ]},
    {"binder": "B4", "values": [
      {"measurement": "Kd", "setting": "VEGF-Trap [7]", "value": 46, "unit": "nM"}
    ]},
    {"binder": "B5", "values": [
      {"measurement": "IC50 of VEGF-A-induced proliferation of HUVECs", "setting": "hVEGF-A165 [1]", "value": 4.8, "unit": "nM"}
    ]}
  ]
}
